Reference: patent US6416987B1, “Mutants of thymidylate synthase and uses thereof” (Sloan Kettering Institute for Cancer Research, priority 1997, dated 2002)
“Also recorded” adds a separate entry of the source. Where two headings read alike, the source gives them in different places.

Legend:
human TS = human TS (Homo sapiens, UniProt P04818, Y33H); conditions: vs wild-type TS; cited from earlier work
[1] = test system: Mouse TS-negative cells (FSthy21); test: Rescue of TS-negative cells by transfection of human TS cDNAs; format: cell-based; conditions: for TS catalytic function / complementation of growth of TS-negative cells: selective medium lacking thymidine; for FM3A TS cells surviving by transfection: selective medium without thymidine
Description: Mouse TS-negative cells (FSthy21) were transfected with a plasmid (pcDNA3hTS*) encoding wild-type or a various mutant human TS enzyme by standard DOTAP transfection procedures. The host cells are deficient in TS, which are unable to survive without exogenous thymidine. […] In contrast, cells were unable to survive with transfection of other 11 human TS variants. For each surviving transfectant, at least 12 individual clones were isolated by soft agar or limiting dilution in 96-well plates. Those clones were expanded to cell lines by growth in normal media. Three cell clones for each transfectant were randomly selected for drug sensitivity assay.

[2] = test system: human thymidylate synthase; test: Kinetic parameters of wild-type and mutant human thymidylate synthases; format: biochemical
Protocol: TS activity was monitored spectrophotometrically at 340 nm as described (Wahba et al., 1961). Activity was determined at 30° C. The assay mixture contained 50 mM Tris.HCl, pH 7.4, 25 mM MgCl2, 6.5 mM formadehyde, 1 mM EDTA, 75 mM BME and 100 μM dUMP, CH2H4folate (100 μM) was added to initiate the reaction. Black cuvettes lacked CH2H4folate. A unit of activity is defined as the amount of enzyme required to convert 1 μmol of dUMP to dTMP/minutes at 30° C. Protein was determined from OD280=0.87×10^5 M^−1 cm^−1, which is equivalent to 1.43 OD280/mg of protein.
Michaelis constants (Km's) for CH2H4folate and dUMP were determined from initial velocity measurements, which were obtained by measuring the change in OD340 with a Shimadzu UV-2101 PC spectrophotometer. […] Steady-state kinetic parameters were subsequently obtained by a nonlinear least-squares fit of the data to the Michaelis-Menten equation using a computer program. The kcats were calculated by dividing Vmax by the estimated concentration of enzyme used in the reaction.

[3] = CH2H4folate 3 mM, read-out: Km (dUMP)
[4] = dUMP fixed at 200 μM, read-out: Km (CH2H4folate)

Sequence of human TS (P04818 whole entry Y33H): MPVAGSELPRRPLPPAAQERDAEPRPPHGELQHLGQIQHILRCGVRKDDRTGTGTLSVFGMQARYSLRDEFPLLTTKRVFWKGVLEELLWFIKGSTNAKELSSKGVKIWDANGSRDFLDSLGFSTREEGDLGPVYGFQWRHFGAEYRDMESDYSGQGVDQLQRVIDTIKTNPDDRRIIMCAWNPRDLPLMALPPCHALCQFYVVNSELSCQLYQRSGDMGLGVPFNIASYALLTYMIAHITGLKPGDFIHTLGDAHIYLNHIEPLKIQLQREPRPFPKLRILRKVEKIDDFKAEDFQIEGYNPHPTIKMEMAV

Molecule | drop in kcat (human TS) | TS catalytic function / complementation of growth of TS-negative cells [1] | FM3A TS cells surviving by transfection [1] | increase of Km for CH2H4folate over wild-type [2] | increase of Km for dUMP over wild-type [2] | kcat [2] | kcat lower than wild-type TS [2] | Km [2, 3] | Km [2, 4]
Tyr33 to His33: literature human TS mutant found in a human colon tumor cell line (protein, UniProt P04818 2-313, looked up, variant Y33H) Thymidylate synthase: PVAGSELPRRPLPPAAQERDAEPRPPHGELQHLGQIQHILRCGVRKDDRTGTGTLSVFGMQARYSLRDEFPLLTTKRVFWKGVLEELLWFIKGSTNAKELSSKGVKIWDANGSRDFLDSLGFSTREEGDLGPVYGFQWRHFGAEYRDMESDYSGQGVDQLQRVIDTIKTNPDDRRIIMCAWNPRDLPLMALPPCHALCQFYVVNSELSCQLYQRSGDMGLGVPFNIASYALLTYMIAHITGLKPGDFIHTLGDAHIYLNHIEPLKIQLQREPRPFPKLRILRKVEKIDDFKAEDFQIEGYNPHPTIKMEMAV | 8 fold | – | – | – | – | – | – | – | –
D49G: human TS mutant Asp49→Gly (protein) MPVAGSELPRRPLPPAAQERDAEPRPPHGELQYLGQIQHILRCGVRKDGRTGTGTLSVFGMQARYSLRDEFPLLTTKRVFWKGVLEELLWFIKGSTNAKELSSKGVKIWDANGSRDFLDSLGFSTREEGDLGPVYGFQWRHFGAEYRDMESDYSGQGVDQLQRVIDTIKTNPDDRRIIMCAWNPRDLPLMALPPCHALCQFYVVNSELSCQLYQRSGDMGLGVPFNIASYALLTYMIAHITGLKPGDFIHTLGDAHIYLNHIEPLKIQLQREPRPFPKLRILRKVGKIDDFKAEDFQIEGYNPHPTIKMEMAV | – | able to complement growth; also recorded: retain TS catalytic function; also recorded: able to allow growth | yes | 4 fold | 4 fold | 0.16 s⁻¹ | 3 fold | 12 µM | 122 µM
F225W: human TS mutant Phe225→Trp (protein) MPVAGSELPRRPLPPAAQERDAEPRPPHGELQYLGQIQHILRCGVRKDDRTGTGTLSVFGMQARYSLRDEFPLLTTKRVFWKGVLEELLWFIKGSTNAKELSSKGVKIWDANGSRDFLDSLGFSTREEGDLGPVYGFQWRHFGAEYRDMESDYSGQGVDQLQRVIDTIKTNPDDRRIIMCAWNPRDLPLMALPPCHALCQFYVVNSELSCQLYQRSGDMGLGVPWNIASYALLTYMIAHITGLKPGDFIHTLGDAHIYLNHIEPLKIQLQREPRPFPKLRILRKVGKIDDFKAEDFQIEGYNPHPTIKMEMAV | – | able to complement growth; also recorded: active enzymes | yes | 4 fold | – | 2.3 s⁻¹ | – | 3.6 µM | 165 µM
I108A: human TS mutant Ile108→Ala (protein) MPVAGSELPRRPLPPAAQERDAEPRPPHGELQYLGQIQHILRCGVRKDDRTGTGTLSVFGMQARYSLRDEFPLLTTKRVFWKGVLEELLWFIKGSTNAKELSSKGVKAWDANGSRDFLDSLGFSTREEGDLGPVYGFQWRHFGAEYRDMESDYSGQGVDQLQRVIDTIKTNPDDRRIIMCAWNPRDLPLMALPPCHALCQFYVVNSELSCQLYQRSGDMGLGVPFNIASYALLTYMIAHITGLKPGDFIHTLGDAHIYLNHIEPLKIQLQREPRPFPKLRILRKVGKIDDFKAEDFQIEGYNPHPTIKMEMAV | – | able to complement growth; also recorded: functional | yes | 22 fold | 4 fold | 0.22 s⁻¹ | 3 fold | 15 µM | 746 µM
Q214R: human TS mutant Gln214→Arg (protein) MPVAGSELPRRPLPPAAQERDAEPRPPHGELQYLGQIQHILRCGVRKDDRTGTGTLSVFGMQARYSLRDEFPLLTTKRVFWKGVLEELLWFIKGSTNAKELSSKGVKIWDANGSRDFLDSLGFSTREEGDLGPVYGFQWRHFGAEYRDMESDYSGQGVDQLQRVIDTIKTNPDDRRIIMCAWNPRDLPLMALPPCHALCQFYVVNSELSCQLYRRSGDMGLGVPFNIASYALLTYMIAHITGLKPGDFIHTLGDAHIYLNHIEPLKIQLQREPRPFPKLRILRKVGKIDDFKAEDFQIEGYNPHPTIKMEMAV | – | – | no | – | – | – | – | – | –
wt: wild-type human thymidylate synthase (recombinant, Pro2 to Leu2 codon modification) (protein, listed as Homo sapiens, Wild type human thymidylate synthase amino acid sequence (Genbank Accession number NP001062)) MPVAGSELPRRPLPPAAQERDAEPRPPHGELQYLGQIQHILRCGVRKDDRTGTGTLSVFGMQARYSLRDEFPLLTTKRVFWKGVLEELLWFIKGSTNAKELSSKGVKIWDANGSRDFLDSLGFSTREEGDLGPVYGFQWRHFGAEYRDMESDYSGQGVDQLQRVIDTIKTNPDDRRIIMCAWNPRDLPLMALPPCHALCQFYVVNSELSCQLYQRSGDMGLGVPFNIASYALLTYMIAHITGLKPGDFIHTLGDAHIYLNHIEPLKIQLQREPRPFPKLRILRKVGKIDDFKAEDFQIEGYNPHPTIKMEMAV | – | able to complement growth | yes | – | – | 0.68 s⁻¹ | – | 4.4 µM | 32.4 µM
